Measured values: US9395368B2, “Methods, agents and peptides for inducing an immune response to matrix metalloproteinase-2 expressing tumors” (New York University, priority 2010, dated 2016)

What was measured:
Assay type in all cases: cell-based, human
[1] = system: IL-12p70 production by DCs; assay: IL-12p70 production by poly(I:C)-matured DCs (CBA)
Description: (§1) Immature DCs were incubated with MMP-2 (0.5 μg/mL or 5 μg/mL) and poly(I:C)-matured 1 h later. IL-12 levels were measured 16 h later. (A) Results are represented as a percentage of IL-12p70 levels, measured by CBA, produced when DCs were incubated with poly(I:C) only (n=11). (B) For intracellular staining of IL-12p35 and IL-12p40 chains, Brefeldin A was added 4 h after poly(I:C) activation and cells were stained after an additional 12 h incubation. Numbers in the upper right quadrants are the percentages of each population for a representative donor (n=3). (C,D) Immature DCs were incubated with MMP-2 for 1 h (5 μg/mL) before poly(I:C) maturation. Intracellular staining of phosphorylated (Y701) STAT1 (P-STAT1) was performed 3 h later. A representative donor (C) and results for all 3 donors (D) are shown. […] (E) Immature DCs were incubated with MMP-2 and poly(I:C)-matured 1 h later. IFNβ levels were measured by ELISA 16 h later. Results are represented as a percentage of IFNβ levels produced when DCs were incubated with poly(I:C) only (n=9). (F,G) 10^6DCs/lane were treated with 0.1 μg MMP-2 or controls. Poly(I:C) was added 1 h later. IFNAR1 protein expression was detected the next day by Western blot analysis using a rabbit monoclonal antibody. A representative donor (F) and results for all 7 donors (G) are shown. (H) The rhIFNAR1 (5 μg; ≈110 kD) was incubated overnight with 0.3 μg MMP-2 before performing Western blot analysis for IFNAR1. The second band (around 90 kD) and the third band (25 kD) very likely correspond to either a degraded form of the protein still recognized by the antibody or a contaminant present in the commercial protein preparation and non-specifically recognized by the antibody. MMP-2 enzymatic activity was controlled (FIG. 13C-D). […]
Dendritic cell preparation and activation. […] Immature DCs were harvested on day 5 and matured using poly(I:C) at 5 μg/mL/10^6 DCs (Amersham) Secretion of IL-12p70, TNFα, IL-1β, IL-6, IL-8 and IL-10 was assessed on both immature and mature DCs using the Human Inflammatory Cytokine Cytometric Bead Array (BD Pharmingen).

[2] = system: phosphorylated (Y701) STAT1; assay: Intracellular staining of phosphorylated (Y701) STAT1 in DCs; settings: DCs preincubated 1 h (5 μg/mL) prior to poly(I:C), 3 h
Description: as §1, with “(F,G) 10^6DCs/lane were treated with 0.1 μg MMP-2 or controls. Poly(I:C) was added 1 h later.” left out, “antibody.” for “antibody. A representative donor (F) and results for all 7 donors (G) are shown. (H) The rhIFNAR1 (5 μg; ≈110 kD) was incubated overnight with 0.3 μg MMP-2 before performing Western blot analysis for IFNAR1. The second band (around 90 kD) and the third band (25 kD) very likely correspond to either a degraded form of the protein still recognized by the antibody or a contaminant present in the commercial protein preparation and non-specifically recognized by the antibody. MMP-2 enzymatic activity was controlled (FIG. 13C-D).”
Intracellular staining T-bet and GATA-3 expression was measured on resting T cells. […] Cytokine production by T cells was also assessed by intracellular staining T cells were stimulated with 2 μM overlapping peptides. […]

IFNAR1 = IFNAR1 protein expression in DCs (Western blot); settings: n=7 donors
Description: as §1, with “antibody.” for “antibody. A representative donor (F) and results for all 7 donors (G) are shown. (H) The rhIFNAR1 (5 μg; ≈110 kD) was incubated overnight with 0.3 μg MMP-2 before performing Western blot analysis for IFNAR1. The second band (around 90 kD) and the third band (25 kD) very likely correspond to either a degraded form of the protein still recognized by the antibody or a contaminant present in the commercial protein preparation and non-specifically recognized by the antibody. MMP-2 enzymatic activity was controlled (FIG. 13C-D).”
Western blots IFNAR1 and β-actin were detected by Western blot analysis using rabbit and mouse mAbs, respectively. […]

B1: active MMP-2: Purified human MMP-2 (mixture of the proenzyme (50%) and the active form (50%)) purchased from Biomol (protein, listed as Homo sapiens)
chain: MEALMARGALTGPLRALCLLGCLLSHAAAAPSPIIKFPGDVAPKTDKELAVQYLNTFYGCPKESCNLFVLKDTLKKMQKFFGLPQTGDLDQNTIETMRKPRCGNPDVANYNFFPRKPKWDKNQITYRIIGYTPDLDPETVDDAFARAFQVWSDVTPLRFSRIHDGEADIMINFGRWEHGDGYPFDGKDGLLAHAFAPGTGVGGDSHFDDDELWTLGEGQVVRVKYGNADGEYCKFPFLFNGKEYNSCTDTGRSDGFLWCSTTYNFEKDGKYGFCPHEALFTMGGNAEGQPCKFPFRFQGTSYDSCTTEGRTDGYRWCGTTEDYDRDKKYGFCPETAMSTVGGNSEGAPCVFPFTFLGNKYESCTSAGRSDGKMWCATTANYDDDRKWGFCPDQGYSLFLVAAHEFGHAMGLEHSQDPGALMAPIYTYTKNFRLSQDDIKGIQELYGASPDIDLGTGPTPTLGPVTPEICKQDIVFDGIAQIRGEIFFFKDRFIWRTVTPRDKPMGPLLVATFWPELPEKIDAVYEAPQEEKAVFFAGNEYWIYSASTLERGYPKPLTSLGLPPDVQRVDAAFNWSKNKKTYIFAGDKFWRYNEVKKKMDPGFPKLIADAWNAIPDNLDAVVDLQGGGHSYFFKGAYYLKLENQSLKSVKFGSIKSDWLGC
For B1, the “IL-12p70, mean of differences” value ([1]; 5 μg/mL MMP-2, n=11 donors) was 41.7, the IL-12p70 mean inhibition ([1]; 5 μg/mL MMP-2, poly(I:C) stimulation, n=11 donors) was 47.8% and the STAT1 phosphorylation [2] was “decreased”. The “expression of IFNAR1 chain on DCs” value (IFNAR1) was “drastically lost expression”.
